Source: publication doi:10.1101/641415
One block for each substance: values may come before it.

Experiments:
[1] = molecular target: SeMet-labelled SiiA-PD (S. Typhimurium); experiment: crystal structure
[2] = molecular target: SiiA periplasmic domain (SiiA-PD) (S. Typhimurium); experiment: SEC
[3] = molecular target: SiiA-R162A (S. Typhimurium); experiment: SEC
[4] = molecular target: periplasmic region of SiiA (ppr-SiiA, aa 40-210) (S. Typhimurium); experiment: SEC

stoichiometry N [1]: 2
Substance: SeMet-labelled SiiA-PD (domain or fragment)

stoichiometry N [2]: 2
Substance: SiiA periplasmic domain (SiiA-PD) (domain or fragment)

stoichiometry N [3]: 2
Substance: SiiA-R162A (domain or fragment)

stoichiometry N [4]: 2
Substance: periplasmic region of SiiA (ppr-SiiA, aa 40-210) (domain or fragment)
